In the assay the target is T1, DCLK1 isoform 4 purified protein (human, UniProt O15075 314-740).
T1 construct: Purified protein used in Western blot and ELISA; also called Doublecortin-like kinase 1 isoform 4; DCLK1 purified protein
T1 sequence: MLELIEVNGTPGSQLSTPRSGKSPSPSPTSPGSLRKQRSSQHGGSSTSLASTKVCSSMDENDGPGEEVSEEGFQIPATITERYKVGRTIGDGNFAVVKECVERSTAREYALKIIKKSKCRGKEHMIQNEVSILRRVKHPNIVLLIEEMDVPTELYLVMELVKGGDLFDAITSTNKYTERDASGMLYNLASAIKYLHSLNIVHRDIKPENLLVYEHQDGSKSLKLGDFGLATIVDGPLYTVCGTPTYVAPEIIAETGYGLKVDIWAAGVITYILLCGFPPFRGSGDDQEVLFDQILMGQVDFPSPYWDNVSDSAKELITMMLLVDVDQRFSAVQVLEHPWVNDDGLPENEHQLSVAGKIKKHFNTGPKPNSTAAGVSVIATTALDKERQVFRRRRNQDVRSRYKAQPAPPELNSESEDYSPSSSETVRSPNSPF
The assay can be described thus: Western blot on purified protein.

B1: CBT-15A monoclonal antibody (antibody, V domains shown)
VH: DVKLVESGGGLVKLGGSLKLSCAASGFTFSSYYMSWVRQTPEKRLELVAAINSNGGSTYYPDTVKGRFTISRDNAKNTLYLQMSSLKSEDTALYYCARHGGNYWYFDVWGAGTTVTVSS
VL: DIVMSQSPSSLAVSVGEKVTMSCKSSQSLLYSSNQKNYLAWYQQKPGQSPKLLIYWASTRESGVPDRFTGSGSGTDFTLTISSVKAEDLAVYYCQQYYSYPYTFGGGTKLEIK
notes: Mouse hybridoma antibody raised against KLH-linked immunogen no; also called CBT-15A mAB; CBT-15 mAB (A)
B1: the binding result was “binds”.

Values taken from patent publication US20210189007A1 (BOARD OF REGENTS OF THE UNIVERSITY OF OKLAHOMA, published 2021).
